Experiment: soluble fraction after stress (log2 fold change); higher = more stays soluble; pooled small domains, quantitative proteomics
Conditions: stress: 75 degC
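Also: 20 min heating vs room temperature control held 20 min.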

Sequence	soluble fraction (log2)
HMGLVVIGTEAGYPAEKAGILAGDRIRKLNGAAVPDYDTFLTALAARKGEPSAIELERDGKTLEVTVSPL	0.105
HMGLWWTEAERELVKTTIEQLYKDTNIAEPVDSKNLRASIPALKAMRTGLSAENQARVDTLLGALQV	-0.462
HMGMAGILDSARMASFIQEKLGYGGGQIRASVMGGHGDDMVPLPRYSTVAGVPLSDVLTQNEIDEMFAQ	-0.0337
HMGMDALIGRRVFVSEEILPGDTGGRMAVDGDSWRAISVGTASNIPAGTEVRIRGHQSLVLEVEP	-0.169
HMGMEENLLKERKQILMDIMKSKEYQPMKVKELAMVLNVPKEDREELRYVLNELMNEGKIVESKKGKFSIA	0.129
HMGMESFWNRVANLLNTSTVVELAQILDVKRSTLSSWIHSDRRPPMEVLLKITRLTGVDIHRLE	-2.59
HMGMETQLSPKEKSIYTIIQNRPNIQSGEVSEKLAIPLPTVKRILSDLINKGLIEKQGSGRNVSYTI	0.338
HMGMFNENLRFLRQKRQMSQQAFASILGIPRTTYSEYEKGNTEPNLKLLIRLSELLDVSLDNLISDDLTHN	-2.82
HMGMKTSQKLARQREIVRLIRAQTIRTQAELADALRERAFPVSQPTLSKDIAELGLIKVPLPDSGYRYQLP	-1.73
HMGMNKEHFIIELKIYLKALNPKDQAIILAKYKALFDARVAEGETEEQVAKSLGKPRVIAEEILKEQGIE	-3.26
HMGMSMNEFLNNRLEQLAVEAVDKSSLGEEIFFYAEPATINLFKDAVDEDEYKVVFPVLKSIIEVEQKLSR	-1.24
HMGMTAPIPGVVLKVSVLPGQKVERGDELLTIEAMKMFNVMRSPSSGTIATVHIKDGDRVVQGQPLVTFA	-0.555
HMGMTTSILDDVIGMGPKRKKALLKAFGSFGALRNATLEEIKQTHTVPEQVAEDVYAVLVQYNSKSE	-0.681
HMGMVKLNEEYLEKVKKHRKELHITQLQISKKLGWSLSRYQRFESGFYKEIEDDAPKKIKEEFGIDYSLL	-0.726
HMGNGALLTLTVKERQVIQLVAEGKSNKQIARDLNVTPETIKSHMKNIFAKLKVDNRAQAAVMVQQ	-2.16
HMGNGDTNERIATLMQILAKQESIINQYGLENPVVSPQMYVRTLKKVVELSGFKDASSYFADIPDGWKA	0.0405
HMGNIADARRDASYVFLIGEWAKSSNLTEKKLAGLIQSNHLDIKYGITVTDVIADIRKYKNDPTYNPF	-2.19
HMGNIKVPSVMGMTLEGAEKVAKDNGAVIEVLEYKESTEEDGTIIEQSPKADMTVATLEKISVVISGK	0.161
HMGNIYKALLGKLEKQLGFLPEGTKLPPEQELAEKFGVSKPTLRRALAELAVRGIIVKQNGIGSVVAGS	-0.55
HMGNKKLVLKLSKKLIKIPSFLNIYSVKLTKNGRELEINLDKSQNEAIDIINLIKKNNISFLEFDIKKR	-1.43
HMGNLIIFYDAQTGSAPLLKAVKTSGATLVYEYKNLHGIAIRPSSKTSIEDAIAYFKKVNGVLSVE	-3.77
HMGNPSGLPLPRFASTRSEPINVRVGPGQKYDIAWTYLKSGIPVEIIQEFDTWRKIRDFDGAEGWIHQNLL	-1.22
HMGNSRNDQDLQTQIIKILAEGPASSRTLIETLTIEDEAALLKTLKRLLMNKKISLTPSNLYKL	-1.06
HMGPAAGVVEKYNLAHLSTGEMIRKEIAEGSDFGKMAAGIINKGELLSDEFVVALIENSIEHHKNVDGFLF	-0.195

Sequence	soluble fraction (log2)
HMGPAVGAIRVEGNKRVEPETVRTYLTFNVGDPYDLAKVDESLKALFATGLFQDVRIRREGNTVVIVVVEN	-0.701
HMGPAYQTQRQEAFAALSEIAAKNPQLMQVAGDLVFRAADFPMADELADRLAKTLPPQLQDKKGQP	-0.455
HMGPEISEDAKVVFDRLKNHDEILLNNFKSEFDLSNKKWDKIIKELRGNDLISIIKSEDGNLFIKP	-0.125
HMGPELGENEKLIFDIIKKESKMELGILKAQVDLSNKKWDKALKGLATHGLTKVNKTDDGLFIELI	-0.555
HMGPIITKTYNLSYATARDVNDIIKSKKSARGDIVIDTRTNSLIVSDVQEKIDLIDEIVATL	-0.368
HMGPLSDRSVADWLLRLGLADTANNRLLLQVMHAAGLPLERTAVRAMRETAAGRPEGTDAREWLQAAAAAQ	-0.571
HMGPNSVPDLRGKSLRQAMKMVNDLELKAIFEGEGIVVGQVPAPGKPVPETKILKITLSLEPY	-1.58
HMGPPAVGSKLQDARKAQQLSLDELSKRAGVSKSMLSEVERNQANPTVGVLWRLATALGISLTDLLG	-1.11
HMGPPLISLDDGLAKGFGVGVGDTLTINILGRRITATIASLREIDWQSLRFDFAVVLSPGVLEGA	0.237
HMGPRKAGSEATRQKILDAAEILFAERGFHSVSVRDITTEAGVDVALINYHFGSKQLLFETVFMRR	-0.32
HMGPRPLPAEFTHPSLRALLALGTTRGGVTSADVKTALEAASVPAGRRAAVLRALDDNGIEVHTEP	-0.0155
HMGPSEVTLDNFVGKNYTDVVNDTSYQFTFKKEEKSDQTHAAGIIIAQSPKKGIKVKSNSTVTLTVSTG	0.359
HMGPVDFYQMFISELQHLAEKPVTVDALIESTQLHKSQLTEWLKRAVDDGVVKKLNRPARFQVKNK	0.0567
HMGPVRDLGLLESAAHRPTTALWGRDVYATIEKKAAALLDSLVRDRPLADGNKRLGWLAALV	0.291
HMGPYGAGSAAPAEDGSGPEGWTVKGNAKSMLYHTEGSPYYGRTNADVWFRDEESAEAAGFRRWDRK	-0.0366
HMGQAELPYSEFLREVNNGQVKSVIIEGSEITGFYKTSGTSFNVIAPDDPKLVERLMAQGVEVRAQPA	0.144
HMGQDLEAFLLKAVGQLDQGDGVTLDALLKVAVSNGGFVREVAEAKLDDMLDAGTLDEPRFGWFRVGAT	-0.41
HMGQDLSYYIKIVQNQQPVDPLTGEPKVLDYGEVIRQAQILQMLDTGDLDRDKAIGQLSMKDAL	0.292
HMGQELRFVIQDHEAGIRLDHYLTQQVEGYSRSHLRKLMDQGLITVDGSYRKAGYRLNVGDVIHVVIPPTR	-0.813
HMGQELTPVERTALDIAARDGKVSTRILAQEAGIGLRTASKTLAALAERGLLTWHGTSRRDPQQHYTS	-0.0688
HMGQISDESVLKEMVVQLIADNPKEVASYLGGKETLLQWFMGQVARATKGKADPQAVKQLLLDEFEKLK	0.0498
HMGQKETIVDLLKTNGTMTQLALAEAIYGDKNHGPNIYSVLMGRVNSGAVLRTGSQPAYYSLSG	0.209
HMGQKMLTIELQEKVNKMPDNLASYDLKLSADGMSLIYKYSLKSERTGITALLQELKNAGLVMRDLKTEQ	-0.641
HMGQLSDREALTVLAREALVELPRAAGDYRNGRTAALQSLVGRVMRKTAGRGNPALLQEIFRSLL	-0.542

Sequence	soluble fraction (log2)
HMGQLVVHQIKGEASRLDKFLVVNIPKYSRSVWREMINNGSVQVNGRVVKPHLLVKEGDIITWSS	-1.4
HMGQLVYPAGVYDVNKSYITDSNSAPYVLDKTDNNYYVLNTQMTWKGTEQDNKTPSQSYEESGGSVWLLFD	-0.118
HMGQPAVSSRDVAEQFGKEHRNVIQSIKNLIAENSALTFMFIEDTYTAGTGKKYPMYYMNRDGFTLLA	0.337
HMGQPGNWTSYVFKNSDTEPAKPTSSGPIPSGWNDAPTGVGIWWMSKATIDASTGKAGSWSTPIRVTGED	-0.0861
HMGQSKNERMLELVELLNKASRSYYQDAQEIMSNYEYDRLYDELQNLEKELGITLSNSPTVN	-0.122
HMGQVSDETGLARVVDALLAAHPDEVAKYRAGKTSLLGWFMGQVMKETRGQANPDLARALVLERLE	-0.342
HMGQYSTTLDKIENSLFGFTYSNEAENTRINRIENKVYGKTSTSQTSTRIAKLKKDLSVDEMG	0.111
HMGREVVVPNLAGIEKEVALDLLKKNRLGGMITGTRFSSDFPAGQVIQQMPEAGSRVKVGKQVKLVLSEG	0.207
HMGRGSEDEQMRGLAVILAEQKQIMQTLGVENEVVKPEQYINTLKRMAELNGFKDTDQFFSIPQ	0.26
HMGRHSPLSIEQKEQLKTEIVALQQQRGGGRVTAVNIAELIQQKFNVVYNPNSLYKLLKQIGMSWV	-1.94
HMGRKEIIVPNLLGKYAIEAGTILKNAGLLEGQAREENSDTYPAGQIMDQFPKANTPANENDKVDYVVSI	≥ 1.04
HMGRLEVDLVVPYDKYEAMNVIRAEGRILKEDHQGDGAHLKIQINETALWKLKRMLGEGYGQ	-0.13
HMGRLPMNIVRAIVEHLDRHASYSEINRATGASKGFISKVAAAVEAASLTPEKFLLLNDEDIQNRITPGR	-0.739
HMGRPTLEQLLDRAQAMGVPRERYAAYADRRWGRGWRVNPHGRGRAWDELDRYRNDPAGYLDKIEVELNQL	-0.341
HMGRQVTVPNVTGMLVEEARAAISEAELWVDSPRAVQGEVTRQEPARGERLSPGQEVRIYTES	0.204
HMGRRSKAMLSSALDAVPGLGEMRRKALISQFGSLKKLRGATPEEIAAVPGIGPKLAAAVHEAVSG	-0.0903
HMGRSTQVPGVEKMTYSQAVQLLHDHGFRVDIRDSLYRDDIKPGHVIEQFPKAKSIVKPGRKIFLYINAV	-1.43
HMGRTGTVVVSPSLNVRTGPWGEIIGSLYNGNKVEIIGSSGDWYQISFGGKTAYVHSDYVVDGG	-1.26
HMGSDAFDISKLNLVGKTKESAESLLKENGFSVDTKEEASDTAAKGTVISYSPTKPKNGERVTLTVSSGK	0.385
HMGSDQEAAMARQDRLSTLVDYVVERGSVHVDDIVADLGVSPATVRRDLDALAAQQLIIRTRGGATANHT	0.034
HMGSGKGAAHTILGISADASDDEIKAAWRKLVQENHPDKLVSQGLPDEFVQAATDRLRLINTAYQSMLNRP	-0.0948
HMGSGLAAAEKIRKAHPEIKIVVATSLIDTQVLARAKAVGADSLWYKDGDEGTLMQVVRRTMAGDHIFP	-0.038
